Source: paper PMC3046976

Target: polysialate O-acetyltransferase NeuO, protein variant with four N-terminal RLKTQDS heptads (Escherichia coli K1 (prophage CUS-3))
Assay: crystal structure; apo-enzyme, space group P2_1, three monomers in the asymmetric unit, 1.7 Å; sitting drop at 20°C, 0.1 M Tris pH 7.2, 0.45 M glycine, 0.2 M NH4NO3, 7% PEG4000

stoichiometry N: 3
Substance: polysialate O-acetyltransferase NeuO, protein variant with four N-terminal RLKTQDS heptads (enzyme)
